Drawing on the supplement of paper PMC10724198, this text covers protein stability index for 15 sequences.

± gives the standard deviation of the averaged measurements.

Data set [1] deals with Saccharomyces cerevisiae. Description: protein stability index of tFT-peptide fusion (C-terminal peptide) (PSI (0-1 scale)); higher = more stable (slower turnover). The method, then:
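MPS profiling in S. cerevisiae of the tFT-X12 degron library: putative degron peptides plus stable controls, 12 aa, fused to the C-terminus of a sfGFP-mCherry timer. Cells are FACS-sorted into 8 mCherry/sfGFP bins and deep-sequenced. PSI runs from 0 (unstable) to 1 (stable). Backgrounds are wild type, das1Δ and doa10Δ at 30 °C, and wild type, das1Δ, cdc34-1 and cdc53-1 at 37 °C; 2-3 technical replicates each.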

In data set [2] the test system is Saccharomyces cerevisiae. The data set is described as above. The note with it: genetic background: wild type; temperature: 30 C.
[3] abbreviates: genetic background: cdc34-1, temperature: 37 C.
[4] abbreviates: genetic background: cdc53-1, temperature: 37 C.
Where [5] appears, read: genetic background: das1 deletion, temperature: 30 C.
Setting [6] is: genetic background: das1 deletion, temperature: 37 C.
[7] abbreviates: genetic background: doa10 deletion, temperature: 30 C.
The mark [8] stands for this setting: genetic background: wild type, temperature: 30 C.
Setting [9] is: genetic background: wild type, temperature: 37 C.
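Further: PSI is a weighted mean of sequencing reads over stability bins, variants kept only with over 10 reads, mCherry proximal and sfGFP distal, peptide attached via GGGS linker.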

For FLFQYLCIISSL, the protein stability index with Saccharomyces cerevisiae [1] (setting [3]) came to 0.0463 ± 0.007; in the data set on Saccharomyces cerevisiae [1] (setting [4]), 0.166 ± 0.037; in the data set with Saccharomyces cerevisiae [1] (setting [5]), 0.133 ± 0.046; in the data set with Saccharomyces cerevisiae [1] (setting [6]), 0.233 ± 0.023; in the data set on Saccharomyces cerevisiae [1] (setting [7]), 0.0866 ± 0.028; in the data set on Saccharomyces cerevisiae [1] (setting [8]), 0.0716 ± 0.026. In addition, the protein stability index in the data set with Saccharomyces cerevisiae [1] (setting [9]) is 0.161 ± 0.013; in the data set on Saccharomyces cerevisiae [2], 0.217 ± 0.037.

For the sequence FLGPMRVLVSSV, the protein stability index in the data set on Saccharomyces cerevisiae [1] (setting [3]) amounted to 0.568 ± 0.03; in the data set with Saccharomyces cerevisiae [1] (setting [4]) it was 0.606 ± 0.032; in the data set on Saccharomyces cerevisiae [1] (setting [5]), 0.424 ± 0.03; in the data set on Saccharomyces cerevisiae [1] (setting [6]), 0.6003 ± 0.0019; in the data set with Saccharomyces cerevisiae [1] (setting [7]) it was 0.401 ± 0.015; with Saccharomyces cerevisiae [1] (setting [8]) it was 0.425 ± 0.026. Also, the protein stability index in the data set with Saccharomyces cerevisiae [1] (setting [9]) turned out to be 0.565 ± 0.0044; with Saccharomyces cerevisiae [2], 0.522 ± 0.073.

On to FLLCRVFVLLRS, for which the protein stability index with Saccharomyces cerevisiae [1] (setting [3]) is 0.043 ± 0.019; in the data set on Saccharomyces cerevisiae [1] (setting [4]) it was 0.0441 ± 0.015; in the data set with Saccharomyces cerevisiae [1] (setting [5]), 0.13 ± 0.037; in the data set with Saccharomyces cerevisiae [1] (setting [6]) it was 0.215 ± 0.0095; in the data set on Saccharomyces cerevisiae [1] (setting [7]), 0.1414 ± 0.0013; in the data set on Saccharomyces cerevisiae [1] (setting [8]) it was 0.102 ± 0.018. The values for the protein stability index with Saccharomyces cerevisiae [1] (setting [9]) and with Saccharomyces cerevisiae [2] were 0.125 ± 0.038 and 0.163 ± 0.045, respectively.

Regarding FLLPWLRPVFFF, the protein stability index worked out at 0.522 ± 0.056 in the data set on Saccharomyces cerevisiae [1] (setting [3]); 0.607 ± 0.055 in the data set on Saccharomyces cerevisiae [1] (setting [4]); 0.567 ± 0.013 in the data set on Saccharomyces cerevisiae [1] (setting [5]); 0.69 ± 0.0074 in the data set with Saccharomyces cerevisiae [1] (setting [6]); 0.219 ± 0.0046 with Saccharomyces cerevisiae [1] (setting [7]); 0.218 ± 0.024 with Saccharomyces cerevisiae [1] (setting [8]). The figures for the protein stability index in the data set with Saccharomyces cerevisiae [1] (setting [9]) and in the data set on Saccharomyces cerevisiae [2] were 0.369 ± 0.029 and 0.293 ± 0.011, respectively.

FLLVGLLIVGCG: the protein stability index was determined as 0.175 ± 0.0045 with Saccharomyces cerevisiae [1] (setting [3]); 0.272 ± 0.0014 in the data set on Saccharomyces cerevisiae [1] (setting [4]); 0.206 ± 0.027 in the data set with Saccharomyces cerevisiae [1] (setting [5]); 0.349 ± 0.018 in the data set with Saccharomyces cerevisiae [1] (setting [6]); 0.166 ± 0.025 in the data set on Saccharomyces cerevisiae [1] (setting [7]); 0.206 ± 0.026 in the data set with Saccharomyces cerevisiae [1] (setting [8]). Moreover, the protein stability index in the data set on Saccharomyces cerevisiae [1] (setting [9]) turned out to be 0.334 ± 0.0082; in the data set on Saccharomyces cerevisiae [2] it was 0.225 ± 0.12.

Take FLSRVVLVVLLV: the protein stability index turned out to be 0.258 ± 0.018 in the data set on Saccharomyces cerevisiae [1] (setting [3]); 0.333 ± 0.006 with Saccharomyces cerevisiae [1] (setting [4]); 0.245 ± 0.029 in the data set on Saccharomyces cerevisiae [1] (setting [5]); 0.43 ± 0.02 with Saccharomyces cerevisiae [1] (setting [6]); 0.196 ± 0.015 in the data set on Saccharomyces cerevisiae [1] (setting [7]); 0.215 ± 0.034 in the data set on Saccharomyces cerevisiae [1] (setting [8]). The figures for the protein stability index in the data set on Saccharomyces cerevisiae [1] (setting [9]) and in the data set with Saccharomyces cerevisiae [2] were 0.339 ± 0.029 and 0.288 ± 0.026, respectively.

Take FLVIILFFLYMR: the protein stability index in the data set on Saccharomyces cerevisiae [1] (setting [3]) was found to be 0.144 ± 0.043; in the data set on Saccharomyces cerevisiae [1] (setting [4]) it was 0.0943 ± 0.015; in the data set on Saccharomyces cerevisiae [1] (setting [5]), 0.176 ± 0.042; in the data set with Saccharomyces cerevisiae [1] (setting [6]), 0.232 ± 0.023; in the data set with Saccharomyces cerevisiae [1] (setting [7]) it was 0.398 ± 0.017; in the data set on Saccharomyces cerevisiae [1] (setting [8]), 0.184 ± 0.041. In addition, the protein stability index in the data set with Saccharomyces cerevisiae [1] (setting [9]) stood at 0.185 ± 0.02; with Saccharomyces cerevisiae [2], 0.209 ± 0.011.

In the case of FLYSVLLICKFI, the protein stability index is 0.214 ± 0.029 in the data set with Saccharomyces cerevisiae [1] (setting [3]); 0.258 ± 0.016 with Saccharomyces cerevisiae [1] (setting [4]); 0.224 ± 0.037 in the data set on Saccharomyces cerevisiae [1] (setting [5]); 0.389 ± 0.013 with Saccharomyces cerevisiae [1] (setting [6]); 0.118 ± 0.016 with Saccharomyces cerevisiae [1] (setting [7]); 0.0757 ± 0.035 in the data set on Saccharomyces cerevisiae [1] (setting [8]). Also, the figures for the protein stability index in the data set with Saccharomyces cerevisiae [1] (setting [9]) and with Saccharomyces cerevisiae [2] were 0.0829 ± 0.034 and 0.135 ± 0.12, respectively.

Turning to FMANRYICQKTL, the protein stability index in the data set with Saccharomyces cerevisiae [1] (setting [3]) was 0.522 ± 0.074; in the data set with Saccharomyces cerevisiae [1] (setting [4]) it was 0.731 ± 0.018; in the data set on Saccharomyces cerevisiae [1] (setting [5]), 0.635 ± 0.026; in the data set with Saccharomyces cerevisiae [1] (setting [6]), 0.727 ± 0.01; in the data set with Saccharomyces cerevisiae [1] (setting [7]), 0.0893 ± 0.023; in the data set with Saccharomyces cerevisiae [1] (setting [8]) it was 0.0967 ± 0.022. The values for the protein stability index in the data set on Saccharomyces cerevisiae [1] (setting [9]) and with Saccharomyces cerevisiae [2] were 0.168 ± 0.017 and 0.185 ± 0.012, respectively.

On to FPCRNFMVFFCF, for which the protein stability index in the data set with Saccharomyces cerevisiae [1] (setting [3]) was found to be 0.425 ± 0.029; with Saccharomyces cerevisiae [1] (setting [4]), 0.442 ± 0.008; with Saccharomyces cerevisiae [1] (setting [5]) it was 0.43 ± 0.035; in the data set with Saccharomyces cerevisiae [1] (setting [6]), 0.505 ± 0.0097; with Saccharomyces cerevisiae [1] (setting [7]), 0.211 ± 0.0036; in the data set on Saccharomyces cerevisiae [1] (setting [8]), 0.204 ± 0.0085. Also, the results for the protein stability index with Saccharomyces cerevisiae [1] (setting [9]) and with Saccharomyces cerevisiae [2] were 0.285 ± 0.03 and 0.29 ± 0.03, respectively.

In the case of FPFPLSSFLLLY, the protein stability index in the data set with Saccharomyces cerevisiae [1] (setting [3]) was 0.385 ± 0.015; with Saccharomyces cerevisiae [1] (setting [4]), 0.401 ± 0.018; with Saccharomyces cerevisiae [1] (setting [5]), 0.41 ± 0.032; in the data set on Saccharomyces cerevisiae [1] (setting [6]) it was 0.516 ± 0.011; in the data set with Saccharomyces cerevisiae [1] (setting [7]) it was 0.415 ± 0.028; in the data set with Saccharomyces cerevisiae [1] (setting [8]) it was 0.331 ± 0.019. For the same sequence, the results for the protein stability index with Saccharomyces cerevisiae [1] (setting [9]) and in the data set with Saccharomyces cerevisiae [2] were 0.444 ± 0.0087 and 0.4195 ± 0.0039, respectively.

On to FRSMFLFLNLLF, for which the protein stability index in the data set on Saccharomyces cerevisiae [1] (setting [3]) was determined as 0.458 ± 0.05; in the data set with Saccharomyces cerevisiae [1] (setting [4]), 0.3523 ± 0.00055; with Saccharomyces cerevisiae [1] (setting [5]) it was 0.391 ± 0.048; with Saccharomyces cerevisiae [1] (setting [6]), 0.73 ± 0.02; in the data set on Saccharomyces cerevisiae [1] (setting [7]) it was 0.559 ± 0.015; in the data set on Saccharomyces cerevisiae [1] (setting [8]) it was 0.371 ± 0.019. For the same sequence, the protein stability index with Saccharomyces cerevisiae [1] (setting [9]) was found to be 0.574 ± 0.025; in the data set on Saccharomyces cerevisiae [2], 0.412 ± 0.014.

Consider FSFEGVLVPLLV, for which the protein stability index with Saccharomyces cerevisiae [1] (setting [3]) is 0.31519 ± 3.7e-05; in the data set with Saccharomyces cerevisiae [1] (setting [4]), 0.301 ± 0.043; in the data set with Saccharomyces cerevisiae [1] (setting [5]), 0.288 ± 0.036; with Saccharomyces cerevisiae [1] (setting [6]) it was 0.4113 ± 0.00044; in the data set with Saccharomyces cerevisiae [1] (setting [7]), 0.249 ± 0.0058; with Saccharomyces cerevisiae [1] (setting [8]), 0.287 ± 0.033. In addition, the protein stability index in the data set on Saccharomyces cerevisiae [1] (setting [9]) is 0.384 ± 0.0086; in the data set with Saccharomyces cerevisiae [2], 0.396 ± 0.015.

As to FSFFLYFFLLLF, the protein stability index was found to be 0.327 ± 0.025 in the data set on Saccharomyces cerevisiae [1] (setting [3]); 0.304 ± 0.0072 in the data set with Saccharomyces cerevisiae [1] (setting [4]); 0.31 ± 0.026 in the data set with Saccharomyces cerevisiae [1] (setting [5]); 0.402 ± 0.016 in the data set on Saccharomyces cerevisiae [1] (setting [6]); 0.392 ± 0.032 with Saccharomyces cerevisiae [1] (setting [7]); 0.271 ± 0.034 in the data set on Saccharomyces cerevisiae [1] (setting [8]). The protein stability index worked out at 0.389 ± 0.016 in the data set on Saccharomyces cerevisiae [1] (setting [9]) and 0.315 ± 0.0031 with Saccharomyces cerevisiae [2].

Consider FSGRYFLLFRFL, for which the protein stability index with Saccharomyces cerevisiae [1] (setting [3]) was 0.238 ± 0.035; with Saccharomyces cerevisiae [1] (setting [4]), 0.28 ± 0.0032; in the data set on Saccharomyces cerevisiae [1] (setting [5]), 0.341 ± 0.0075; in the data set with Saccharomyces cerevisiae [1] (setting [6]) it was 0.389 ± 0.0091; with Saccharomyces cerevisiae [1] (setting [7]), 0.083 ± 0.015; in the data set on Saccharomyces cerevisiae [1] (setting [8]) it was 0.0605 ± 0.014. Besides, the protein stability index was found to be 0.144 ± 0.038 in the data set on Saccharomyces cerevisiae [1] (setting [9]) and 0.104 ± 0.019 in the data set with Saccharomyces cerevisiae [2].
